According to US8158376B2, “Bisubstrate fluorescent probe binding to protein kinases” (University of Tartu, priority 2006, dated 2012):
Where two headings read alike, the source gives them in different places.

Assays:
Test in all cases: Kinase selectivity panel
Format in all cases: biochemical
SAPK2b/p38β2 = SAPK2b/p38β2 (Homo sapiens, UniProt Q15759); settings: inhibitor 1 μM; ATP 20 μM; read-out: residual activity (%) SAPK2b/p38β2
Method: (§1) The panel of kinases included all 52 kinases available for testing. To the best of our knowledge, the selectivity profiling has not been carried out with a wide panel of PK before for bisubstrate-type inhibitors.
(§2) The assay of protein kinases was performed at 30° C. as described previously [Davies et al., Biochem. J. 351 (2000) 95; Murray et al., Biochem. J. 384 (2004) 477]. The results of the testing are expressed as the % of residual activity of the kinase in the presence of the inhibitor at 1 micromolar concentration.

SAPK2a/p38 = SAPK2a/p38 (Homo sapiens, UniProt Q16539); settings: inhibitor 1 μM; ATP 50 μM; read-out: residual activity (%) SAPK2a/p38
Method: as §1, §2

SAPK3/p38g = biological target: T1, SAPK3/p38g (Homo sapiens, UniProt P53778); settings: inhibitor 1 μM; ATP 5 μM; read-out: residual activity (%) SAPK3/p38g
T1 sequence (P53778 1-367): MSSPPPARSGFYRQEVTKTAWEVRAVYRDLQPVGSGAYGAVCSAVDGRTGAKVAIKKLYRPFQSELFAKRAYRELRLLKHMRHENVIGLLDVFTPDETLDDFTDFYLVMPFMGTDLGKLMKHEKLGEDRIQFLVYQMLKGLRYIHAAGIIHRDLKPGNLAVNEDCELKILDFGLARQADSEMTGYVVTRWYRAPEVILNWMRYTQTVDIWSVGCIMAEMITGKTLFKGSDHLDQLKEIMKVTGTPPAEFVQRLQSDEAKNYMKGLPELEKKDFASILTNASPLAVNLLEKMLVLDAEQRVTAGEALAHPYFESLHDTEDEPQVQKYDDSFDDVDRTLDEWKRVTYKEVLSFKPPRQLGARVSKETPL
Method: as §1, §2

JNK/SAPK1c = JNK/SAPK1c (Homo sapiens, UniProt P45983); settings: inhibitor 1 μM; ATP 20 μM; read-out: residual activity (%) JNK/SAPK1c
Method: as §1, §2

SAPK4/p38d = biological target: T2, SAPK4/p38d (Homo sapiens, UniProt O15264); settings: inhibitor 1 μM; ATP 5 μM; read-out: residual activity (%) SAPK4/p38d
T2 sequence (O15264 1-365): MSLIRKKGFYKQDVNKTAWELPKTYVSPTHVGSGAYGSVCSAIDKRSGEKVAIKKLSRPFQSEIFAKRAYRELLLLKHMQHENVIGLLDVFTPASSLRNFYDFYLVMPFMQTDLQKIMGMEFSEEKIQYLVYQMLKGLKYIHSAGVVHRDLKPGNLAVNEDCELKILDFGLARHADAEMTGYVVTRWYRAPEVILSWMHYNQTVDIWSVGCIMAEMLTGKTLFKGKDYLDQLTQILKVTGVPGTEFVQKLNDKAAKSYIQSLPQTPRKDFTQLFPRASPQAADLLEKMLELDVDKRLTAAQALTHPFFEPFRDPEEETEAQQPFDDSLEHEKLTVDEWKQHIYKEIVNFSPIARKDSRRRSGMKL
Method: as §1, §2

MAPK2/ERK2 = MAPK2/ERK2 (Homo sapiens, UniProt P28482); settings: inhibitor 1 μM; ATP 50 μM; read-out: residual activity (%) MAPK2/ERK2
Method: as §1, §2

PKBb = PKBb (Homo sapiens, UniProt P31751); settings: read-out: residual activity (%) PKBb
Procedure, shortened: (§3)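 Each kinase was tested as one member of a 52-kinase selectivity panel. Kinase reactions were run at 30° C.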

smMLCK = smMLCK (Homo sapiens, UniProt Q15746); settings: read-out: residual activity (%) smMLCK
Procedure, shortened: as §3

IKKb = biological target: T3, IKKb (Homo sapiens, UniProt O14920); settings: read-out: residual activity (%) IKKb
T3 sequence (O14920 1-756): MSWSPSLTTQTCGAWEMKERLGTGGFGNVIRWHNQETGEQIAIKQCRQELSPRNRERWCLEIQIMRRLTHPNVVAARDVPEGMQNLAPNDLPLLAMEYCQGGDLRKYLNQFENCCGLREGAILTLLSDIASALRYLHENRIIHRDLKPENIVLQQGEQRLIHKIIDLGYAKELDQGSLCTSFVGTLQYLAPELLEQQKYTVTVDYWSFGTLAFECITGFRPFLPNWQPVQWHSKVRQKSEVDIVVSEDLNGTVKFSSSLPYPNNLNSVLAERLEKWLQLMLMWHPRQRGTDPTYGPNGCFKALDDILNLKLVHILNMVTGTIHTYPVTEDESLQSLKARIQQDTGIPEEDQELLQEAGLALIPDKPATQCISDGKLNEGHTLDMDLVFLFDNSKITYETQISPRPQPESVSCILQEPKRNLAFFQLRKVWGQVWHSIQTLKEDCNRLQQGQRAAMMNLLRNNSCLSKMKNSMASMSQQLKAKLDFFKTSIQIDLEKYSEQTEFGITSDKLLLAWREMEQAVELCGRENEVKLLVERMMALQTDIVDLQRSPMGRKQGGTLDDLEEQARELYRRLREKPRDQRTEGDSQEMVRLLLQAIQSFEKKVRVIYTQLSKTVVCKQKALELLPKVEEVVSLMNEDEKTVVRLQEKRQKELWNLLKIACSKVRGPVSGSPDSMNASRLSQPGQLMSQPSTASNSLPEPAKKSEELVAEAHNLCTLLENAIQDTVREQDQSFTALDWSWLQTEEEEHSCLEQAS
Procedure, shortened: as §3

Lck = Lck (Homo sapiens, UniProt P06239); settings: read-out: residual activity (%) Lck
Procedure, shortened: as §3

MAPKAP-K1a/rsk-1 = MAPKAP-K1a/rsk-1 (Homo sapiens, UniProt Q15418); settings: inhibitor 1 μM, ATP 50 μM
Procedure, shortened: as §3

MAPKAP-K3 = MAPKAP-K3 (Homo sapiens, UniProt Q16644); settings: read-out: residual activity (%) MAPKAP-K3
Procedure, shortened: as §3

Chain of JNK/SAPK1c (P45983 whole entry): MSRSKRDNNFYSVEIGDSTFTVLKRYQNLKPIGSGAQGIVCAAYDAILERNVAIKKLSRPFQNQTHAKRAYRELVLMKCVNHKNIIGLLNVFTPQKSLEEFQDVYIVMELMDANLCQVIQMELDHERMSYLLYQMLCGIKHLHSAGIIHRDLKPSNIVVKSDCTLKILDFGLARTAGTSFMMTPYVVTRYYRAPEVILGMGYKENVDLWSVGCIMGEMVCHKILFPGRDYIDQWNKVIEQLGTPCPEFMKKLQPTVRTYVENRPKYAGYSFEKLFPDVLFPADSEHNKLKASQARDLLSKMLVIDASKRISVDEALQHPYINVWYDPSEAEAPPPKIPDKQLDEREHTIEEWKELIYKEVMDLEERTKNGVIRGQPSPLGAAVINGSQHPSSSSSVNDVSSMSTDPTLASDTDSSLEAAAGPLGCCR
Chain of MAPKAP-K3 (Q16644 whole entry, species assumed): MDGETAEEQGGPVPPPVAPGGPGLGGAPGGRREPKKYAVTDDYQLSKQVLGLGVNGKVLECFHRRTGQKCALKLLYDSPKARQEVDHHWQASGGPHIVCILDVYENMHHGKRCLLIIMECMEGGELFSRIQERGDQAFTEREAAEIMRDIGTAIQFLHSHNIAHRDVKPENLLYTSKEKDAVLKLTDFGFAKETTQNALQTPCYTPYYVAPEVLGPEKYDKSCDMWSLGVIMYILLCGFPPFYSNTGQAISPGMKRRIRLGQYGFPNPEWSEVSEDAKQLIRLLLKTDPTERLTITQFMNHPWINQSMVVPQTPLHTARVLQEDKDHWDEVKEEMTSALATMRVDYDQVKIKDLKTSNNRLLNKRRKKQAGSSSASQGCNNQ
Chain of PKBb (P31751 whole entry): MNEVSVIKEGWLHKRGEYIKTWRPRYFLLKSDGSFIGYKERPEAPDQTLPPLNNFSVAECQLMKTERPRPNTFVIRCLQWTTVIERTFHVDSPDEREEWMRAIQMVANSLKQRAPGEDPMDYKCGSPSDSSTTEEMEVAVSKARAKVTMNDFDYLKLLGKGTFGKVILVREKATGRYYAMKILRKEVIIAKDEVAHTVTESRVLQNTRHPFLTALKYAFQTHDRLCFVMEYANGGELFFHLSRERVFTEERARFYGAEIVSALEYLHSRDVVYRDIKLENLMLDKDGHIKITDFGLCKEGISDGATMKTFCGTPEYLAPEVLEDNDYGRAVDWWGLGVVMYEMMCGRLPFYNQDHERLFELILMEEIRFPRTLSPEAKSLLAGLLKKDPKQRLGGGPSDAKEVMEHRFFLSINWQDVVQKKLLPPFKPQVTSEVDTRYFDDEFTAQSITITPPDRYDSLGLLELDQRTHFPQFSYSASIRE
Chain of Lck (P06239 whole entry, species assumed): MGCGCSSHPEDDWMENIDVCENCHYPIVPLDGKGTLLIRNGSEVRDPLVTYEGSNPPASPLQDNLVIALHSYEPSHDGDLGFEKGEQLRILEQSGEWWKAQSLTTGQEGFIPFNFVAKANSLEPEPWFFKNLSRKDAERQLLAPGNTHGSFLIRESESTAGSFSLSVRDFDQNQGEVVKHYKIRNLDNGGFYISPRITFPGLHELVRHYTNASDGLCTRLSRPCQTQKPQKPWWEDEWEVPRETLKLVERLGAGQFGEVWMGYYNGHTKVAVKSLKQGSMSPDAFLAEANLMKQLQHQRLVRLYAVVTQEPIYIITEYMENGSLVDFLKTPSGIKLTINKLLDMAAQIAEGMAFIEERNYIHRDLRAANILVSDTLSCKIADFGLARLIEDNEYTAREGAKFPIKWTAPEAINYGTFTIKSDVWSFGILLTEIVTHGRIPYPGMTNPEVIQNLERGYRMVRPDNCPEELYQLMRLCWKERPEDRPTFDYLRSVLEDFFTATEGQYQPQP
Chain of MAPK2/ERK2 (P28482 whole entry): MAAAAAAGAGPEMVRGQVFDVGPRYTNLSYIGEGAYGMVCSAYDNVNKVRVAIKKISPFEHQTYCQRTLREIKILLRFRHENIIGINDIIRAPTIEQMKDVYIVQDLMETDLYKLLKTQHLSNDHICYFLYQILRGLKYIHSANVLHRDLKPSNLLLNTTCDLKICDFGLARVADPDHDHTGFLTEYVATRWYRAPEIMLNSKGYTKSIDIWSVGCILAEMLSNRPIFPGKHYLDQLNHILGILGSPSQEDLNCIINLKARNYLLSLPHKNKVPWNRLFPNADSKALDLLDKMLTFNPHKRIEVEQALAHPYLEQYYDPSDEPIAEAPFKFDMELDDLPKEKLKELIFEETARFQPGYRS
Chain of SAPK2a/p38 (Q16539 whole entry): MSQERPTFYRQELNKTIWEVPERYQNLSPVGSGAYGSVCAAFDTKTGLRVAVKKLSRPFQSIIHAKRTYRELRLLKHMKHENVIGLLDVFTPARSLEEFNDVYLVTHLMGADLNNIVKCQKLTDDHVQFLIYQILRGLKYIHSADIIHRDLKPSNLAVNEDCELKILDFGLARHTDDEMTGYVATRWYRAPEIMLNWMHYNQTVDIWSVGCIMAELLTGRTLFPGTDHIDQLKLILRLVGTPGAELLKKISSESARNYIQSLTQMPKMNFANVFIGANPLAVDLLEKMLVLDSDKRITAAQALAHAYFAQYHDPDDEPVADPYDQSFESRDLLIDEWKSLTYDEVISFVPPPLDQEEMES
Chain of MAPKAP-K1a/rsk-1 (Q15418 whole entry): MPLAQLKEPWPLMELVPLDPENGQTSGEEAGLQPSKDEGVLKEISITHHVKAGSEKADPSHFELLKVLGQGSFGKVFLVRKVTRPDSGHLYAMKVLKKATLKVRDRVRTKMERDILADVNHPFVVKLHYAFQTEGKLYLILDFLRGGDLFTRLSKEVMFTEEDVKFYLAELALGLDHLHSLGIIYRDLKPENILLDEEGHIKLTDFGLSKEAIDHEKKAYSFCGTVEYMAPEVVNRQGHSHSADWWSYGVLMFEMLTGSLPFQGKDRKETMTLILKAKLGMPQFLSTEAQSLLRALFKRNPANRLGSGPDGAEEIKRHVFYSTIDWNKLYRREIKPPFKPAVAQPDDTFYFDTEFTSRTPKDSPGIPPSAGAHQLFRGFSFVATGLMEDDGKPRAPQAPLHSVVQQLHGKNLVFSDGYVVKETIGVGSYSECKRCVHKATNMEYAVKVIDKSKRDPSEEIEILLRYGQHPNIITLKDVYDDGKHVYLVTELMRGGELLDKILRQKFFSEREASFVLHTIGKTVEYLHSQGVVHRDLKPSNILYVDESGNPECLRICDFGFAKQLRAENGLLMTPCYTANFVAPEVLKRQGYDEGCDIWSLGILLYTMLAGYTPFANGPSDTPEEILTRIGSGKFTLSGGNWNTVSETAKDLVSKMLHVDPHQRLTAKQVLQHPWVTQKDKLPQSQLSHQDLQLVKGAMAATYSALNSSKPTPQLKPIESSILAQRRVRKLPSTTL
Chain of SAPK2b/p38β2 (Q15759 whole entry): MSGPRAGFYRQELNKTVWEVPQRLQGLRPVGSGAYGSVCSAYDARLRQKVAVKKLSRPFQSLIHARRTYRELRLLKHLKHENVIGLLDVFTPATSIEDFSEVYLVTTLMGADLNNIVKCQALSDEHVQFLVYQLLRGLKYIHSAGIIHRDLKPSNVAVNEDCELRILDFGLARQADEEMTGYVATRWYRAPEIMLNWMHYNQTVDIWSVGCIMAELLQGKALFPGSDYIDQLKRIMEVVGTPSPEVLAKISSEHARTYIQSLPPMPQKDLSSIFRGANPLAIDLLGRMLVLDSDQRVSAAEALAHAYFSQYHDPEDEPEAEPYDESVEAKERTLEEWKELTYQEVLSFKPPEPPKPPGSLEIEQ

| Compound | remaining activity at 1 µM (SAPK2b/p38β2) [%] | remaining activity at 1 µM (SAPK2a/p38) [%] | remaining activity at 1 µM (SAPK3/p38g) [%] | remaining activity at 1 µM (JNK/SAPK1c) [%] | remaining activity at 1 µM (SAPK4/p38d) [%] | remaining activity at 1 µM (MAPK2/ERK2) [%] | remaining activity at 1 µM (PKBb) [%] | remaining activity at 1 µM (smMLCK) [%] | remaining activity at 1 µM (IKKb) [%] | remaining activity at 1 µM (Lck) [%] | residual activity (%) MAPKAP-K1a/rsk-1 (MAPKAP-K1a/rsk-1) | remaining activity at 1 µM (MAPKAP-K3) [%] | remaining activity at 1 µM (PKBb; inhibitor 1 μM, ATP 50 μM) [%] | remaining activity at 1 µM (smMLCK; inhibitor 1 μM, ATP 50 μM) [%] | remaining activity at 1 µM (IKKb; inhibitor 1 μM, ATP 5 μM) [%] | remaining activity at 1 µM (Lck; inhibitor 1 μM, ATP 50 μM) [%] | remaining activity at 1 µM (MAPKAP-K1a/rsk-1; read-out: residual activity (%) MAPKAP-K1a/rsk-1) [%] | remaining activity at 1 µM (MAPKAP-K3; inhibitor 1 μM, ATP 20 μM) [%] |
| --- | --- | --- | --- | --- | --- | --- | --- | --- | --- | --- | --- | --- | --- | --- | --- | --- | --- | --- |
| N=C(N)NCCC[C@@H](NC(=O)[C@@H](CCCNC(=N)N)NC(=O)[C@@H](CCCNC(=N)N)NC(=O)[C@@H](CCCNC(=N)N)NC(=O)[C@@H](CCCNC(=N)N)NC(=O)[C@@H](CCCNC(=N)N)NC(=O)CCCCCNC(=O)[C@H]1O[C@@H](n2cnc3c(N)ncnc32)[C@H](O)[C@@H]1O)C(N)=O [Compound 5, AdcAhx(D-Arg)6-NH2] | 85 | 79 | 111 | 70 | 107 | 100 | 3 | 72 | 94 | 70 | 28 (±7) % | 67 | – | – | – | – | – | – |
| N=C(N)NCCC[C@@H](NC(=O)[C@@H](CCCNC(=N)N)NC(=O)[C@@H](CCCNC(=N)N)NC(=O)[C@@H](CCCNC(=N)N)NC(=O)[C@@H](CCCNC(=N)N)NC(=O)[C@@H](CCCNC(=N)N)NC(=O)CCCCCNCCNS(=O)(=O)c1cccc2cnccc12)C(N)=O [Compound 26, H9-Hex(D-Arg)6-NH2] | 80 | 76 | 99 | 75 | 93 | 95 | – | – | – | – | – | – | 3 | 90 | 87 | 88 | 0 | 69 |
